# B1: EHEE_rd4_0726 (parent)
# chain: DIEITTNGEEDAKRVIKELQKRNLEYHIEVHGNQWVIKVR
# Variants of: B1
# Experiment: folding stability dG (cDNA display proteolysis); higher = more stable
# Settings: PBS, room temperature
row,Variant,folding stability dG [kcal/mol]
1,DIEITTNGEEDAKRVIKELAKRNLEYHIEVHGNQWVIKVR [Q20A],2.11
2,DIEITTNGEEDAKRVIKELQKRNLEYHIEVHGNQWVFKVR [I37F],1.95
3,DIEITTNGEEDAKRVIKELQKRNLEYHIEVHGNQWVMKVR [I37M],0.481
4,DIGITTNGEEDAKRVIKELQKRNLEYHIEVHGNQWVIKVR [E3G],1.25
5,DITITTNGEEDAKRVIKELQKRNLEYHIEVHGNQWVIKVR [E3T],3.12
6,DIQITTNGEEDAKRVIKELQKRNLEYHIEVHGNQWVIKVR [E3Q],2.37
7,DIEITTNGEEDAKRVIKELQKRNLEYHIECHGNQWVIKVR [V30C],2.23
8,DIEITTNGEEDAKRVIKELQKRNLEYHIEYHGNQWVIKVR [V30Y],2.12
9,DIEITTNGEEDAKRVIKELQKRNLEYHIEHHGNQWVIKVR [V30H],1.94
10,DIEITTNGEEDAKRVIKELQKRNLEYHIEKHGNQWVIKVR [V30K],2.36
11,DIEITTNGEEDAKRVIKELQKRNLEYHIESHGNQWVIKVR [V30S],1.32
12,DIEITTNGEEDAKRVIKELQKRNLEYHIEIHGNQWVIKVR [V30I],2.72
13,DIEITTNGEEDAKRVIKALQKRNLEYHIEVHGNQWVIKVR [E18A],2.43
14,DIEITTNGEEDAKRVIKVLQKRNLEYHIEVHGNQWVIKVR [E18V],2.32
15,DIEITTNGEEDAKRVIKTLQKRNLEYHIEVHGNQWVIKVR [E18T],1.95
16,DIEITPNGEEDAKRVIKELQKRNLEYHIEVHGNQWVIKVR [T6P],1.51
17,DIEITDNGEEDAKRVIKELQKRNLEYHIEVHGNQWVIKVR [T6D],0.026
18,DIEITGNGEEDAKRVIKELQKRNLEYHIEVHGNQWVIKVR [T6G],2.65
19,DIEITLNGEEDAKRVIKELQKRNLEYHIEVHGNQWVIKVR [T6L],2.84
20,DIEITINGEEDAKRVIKELQKRNLEYHIEVHGNQWVIKVR [T6I],3.08
21,DIEITQNGEEDAKRVIKELQKRNLEYHIEVHGNQWVIKVR [T6Q],0.841
22,DIEITTNGEEDAKRVIKELQKRNLEYHIEVHGTQWVIKVR [N33T],2.24
23,DIEITTNGEEDAKRVIKELQKRNLEYHIEVHGGQWVIKVR [N33G],2.34
24,DIEITTNGEEDAKRVIKELQKRNLEYHIEVHGMQWVIKVR [N33M],1.97
25,DIEITTNGEEDAKRVIKELQKRNLEYHIEVHGHQWVIKVR [N33H],2.03

row,Variant,folding stability dG [kcal/mol]
1,DIEIDTNGEEDAKRVIKELQKRNLEYHIEVHGNQWVIKVR [T5D],1
2,DIEILTNGEEDAKRVIKELQKRNLEYHIEVHGNQWVIKVR [T5L],2.49
3,DIEIYTNGEEDAKRVIKELQKRNLEYHIEVHGNQWVIKVR [T5Y],2.91
4,DIEITTNGEEDAKRVIKELQKRNLEHHIEVHGNQWVIKVR [Y26H],0.887
5,DIEITTNGEEDAKRVIKELQKRNLEMHIEVHGNQWVIKVR [Y26M],1.13
6,DIEITTNGEEDAKRVIKELQKRNLEYHIEVHGNQWVIKAR [V39A],1.06
7,DIEITTNGEEDAKRVIKELQKRNLEYHIEVHGNQWVIKGR [V39G],0.015
8,DIEITTNGEEDAKRVIKELQKRNLEYHIEVHGNQWVIKQR [V39Q],-0.263
9,DIEITTNGEEDAKRVIKELQKRNLEYHIEVHGNQWVIKPR [V39P],-0.609
10,DIEITTNGEEDAKRVIKELQKRNLEYHIEVHGNQWVIKIR [V39I],2.58
11,DIEITTNLEEDAKRVIKELQKRNLEYHIEVHGNQWVIKVR [G8L],1.83
12,DIEITTNDEEDAKRVIKELQKRNLEYHIEVHGNQWVIKVR [G8D],2.64
13,DIEITTNGEEDAKRVIKELQKRNLEYHKEVHGNQWVIKVR [I28K],-0.291
14,DIEITTNGEEDAKRVIKELQKRNLEYHQEVHGNQWVIKVR [I28Q],0.128
15,DIEITTNGEEDAKRVIKELQKRSLEYHIEVHGNQWVIKVR [N23S],1.95
16,DIEITTNGEEDAKRVIKELQKRVLEYHIEVHGNQWVIKVR [N23V],1.09
17,DIEITTNGEEDAKRVIKELQKRPLEYHIEVHGNQWVIKVR [N23P],0.565
18,DIEITTNGFEDAKRVIKELQKRNLEYHIEVHGNQWVIKVR [E9F],2.52
19,DIEITTNGAEDAKRVIKELQKRNLEYHIEVHGNQWVIKVR [E9A],2.26
20,DIEITTNGEEDAKRVIKELQKRNLEYHIEVHGNQWYIKVR [V36Y],1.7
21,DIEITTNGEEDAKRVIKELQKRNLEYHIEVHGNQWRIKVR [V36R],1.7
22,DIEITTNGEIDAKRVIKELQKRNLEYHIEVHGNQWVIKVR [E10I],2.01
23,DIEITTNGECDAKRVIKELQKRNLEYHIEVHGNQWVIKVR [E10C],2.43
24,DIEITTNGERDAKRVIKELQKRNLEYHIEVHGNQWVIKVR [E10R],2.18
25,DIEITTNGEPDAKRVIKELQKRNLEYHIEVHGNQWVIKVR [E10P],1.52

row,Variant,folding stability dG [kcal/mol]
1,DIEITTNGEFDAKRVIKELQKRNLEYHIEVHGNQWVIKVR [E10F],2.05
2,DIEITTNGEWDAKRVIKELQKRNLEYHIEVHGNQWVIKVR [E10W],2.21
3,DIEITTNGEEDAKRVIKELQKRNLEYHIEVHGNMWVIKVR [Q34M],2.6
4,DIEITTNGEEDAKRVIKELQKRNLEYHIEVHGNKWVIKVR [Q34K],2.56
5,DIEITTNGEEDAKRVIKELQKRNLEYHIEVHGNQWVIRVR [K38R],2.58
6,DIEITTNGEEDAKRVIKELQKRNLEYHIEVHGNQWVIYVR [K38Y],2.68
7,DIEITTNGEEDAKRVIKELQKRNLEYHIEVHGNQWVIEVR [K38E],0.557
8,DIEITTNGEEDAKHVIKELQKRNLEYHIEVHGNQWVIKVR [R14H],1.83
9,DIEITTNGEEDAKMVIKELQKRNLEYHIEVHGNQWVIKVR [R14M],2.27
10,DIEITTNGEEDAKNVIKELQKRNLEYHIEVHGNQWVIKVR [R14N],1.9
11,DIEITTEGEEDAKRVIKELQKRNLEYHIEVHGNQWVIKVR [N7E],2.41
12,DIEITTLGEEDAKRVIKELQKRNLEYHIEVHGNQWVIKVR [N7L],2.47
13,DIEITTFGEEDAKRVIKELQKRNLEYHIEVHGNQWVIKVR [N7F],2.75
14,DIEITTKGEEDAKRVIKELQKRNLEYHIEVHGNQWVIKVR [N7K],2.1
15,DIEITTNGEEDAKRVIKELQKRNLEYHIEVVGNQWVIKVR [H31V],2.61
16,DIEITTNGEEDAKRVIKELQKRNLEYHIEVRGNQWVIKVR [H31R],2.97
17,DIEITTNGEEDAKRVIKELQKRNLEYHIEVYGNQWVIKVR [H31Y],2.26
18,DIEITTNGEEDAKRVIKELQYRNLEYHIEVHGNQWVIKVR [K21Y],2.08
19,DIEITTNGEEDAKRVIKELQDRNLEYHIEVHGNQWVIKVR [K21D],2.3
20,DIEITTNGEEDAKRVIKELQHRNLEYHIEVHGNQWVIKVR [K21H],2.02
21,DIEITTNGEEDAKRVIKELQQRNLEYHIEVHGNQWVIKVR [K21Q],2.23
22,DIEITTNGEEDAKRVIKELQRRNLEYHIEVHGNQWVIKVR [K21R],2.75
23,DIEITTNGEEDFKRVIKELQKRNLEYHIEVHGNQWVIKVR [A12F],2.45
24,DIEITTNGEEDWKRVIKELQKRNLEYHIEVHGNQWVIKVR [A12W],1.51
25,DIEITTNGEEDPKRVIKELQKRNLEYHIEVHGNQWVIKVR [A12P],-0.076

row,Variant,folding stability dG [kcal/mol]
1,DIEITTNGEEDAKRVIKEMQKRNLEYHIEVHGNQWVIKVR [L19M],1.32
2,DIEITTNGEEDAKRVIKETQKRNLEYHIEVHGNQWVIKVR [L19T],-0.334
3,DIEITTNGEEDAKRVIKEIQKRNLEYHIEVHGNQWVIKVR [L19I],1.56
4,DIEITTNGEEDAKRVIKEFQKRNLEYHIEVHGNQWVIKVR [L19F],1.38
5,DIEITTNGEEDAKRVIKEYQKRNLEYHIEVHGNQWVIKVR [L19Y],0.81
6,DIEITTNGEEDAKRQIKELQKRNLEYHIEVHGNQWVIKVR [V15Q],0.871
7,DIEITTNGEEDAKRPIKELQKRNLEYHIEVHGNQWVIKVR [V15P],-0.481
8,DIEITTNGEEDAKRTIKELQKRNLEYHIEVHGNQWVIKVR [V15T],1.27
9,DIEITTNGEEDAKRGIKELQKRNLEYHIEVHGNQWVIKVR [V15G],-0.213
10,DIEITTNGEEDAKRHIKELQKRNLEYHIEVHGNQWVIKVR [V15H],1.23
11,DIEITTNGEEDAKRVIKELQKRNLEYHIEVHGNQWVIKVV [R40V],2.65
12,DIEITTNGEEDAKRVIKELQKRNLEYHIEVHGNQWVIKVS [R40S],2.18
13,DIEITTNGEEDAKRVIKELQKRNLEYHIEVHGNQWVIKVT [R40T],2.48
14,DIEITTNGEEDAKRVIQELQKRNLEYHIEVHGNQWVIKVR [K17Q],2.46
15,DIEITTNGEEDAKRVIRELQKRNLEYHIEVHGNQWVIKVR [K17R],2.7
16,DIEITTNGEEDAKRVIGELQKRNLEYHIEVHGNQWVIKVR [K17G],1.97
17,DIEITTNGEEDAKRVINELQKRNLEYHIEVHGNQWVIKVR [K17N],2.05
18,DIEITTNGEEIAKRVIKELQKRNLEYHIEVHGNQWVIKVR [D11I],2.03
19,DIEITTNGEENAKRVIKELQKRNLEYHIEVHGNQWVIKVR [D11N],2.28
20,DIEITTNGEEVAKRVIKELQKRNLEYHIEVHGNQWVIKVR [D11V],1.93
21,DIEITTNGEEDAKRVIKELQKRNVEYHIEVHGNQWVIKVR [L24V],2.19
22,DIEITTNGEEDAKRVIKELQKRNEEYHIEVHGNQWVIKVR [L24E],1.01
23,DYEITTNGEEDAKRVIKELQKRNLEYHIEVHGNQWVIKVR [I2Y],3.27
24,DREITTNGEEDAKRVIKELQKRNLEYHIEVHGNQWVIKVR [I2R],1.97
25,DIEITTNGEEDAKRVIKELQKRNLEYHIEVHGNQCVIKVR [W35C],1.35

row,Variant,folding stability dG [kcal/mol]
1,DIEITTNGEEDAKRVIKELQKRNLEYHIEVHGNQFVIKVR [W35F],1.79
2,DIEITTNGEEDAKRVIKELQKRNLEYHIEVHGNQRVIKVR [W35R],0.717
3,DIEITTNGEEDAKRVIKELQKRNLEYHIEVHGNQSVIKVR [W35S],0.359
4,DIEITTNGEEDAKRVIKELQKRNLEYHISVHGNQWVIKVR [E29S],2.14
5,DIEITTNGEEDAKRVAKELQKRNLEYHIEVHGNQWVIKVR [I16A],1.54
6,DIEITTNGEEDAKRVWKELQKRNLEYHIEVHGNQWVIKVR [I16W],0.844
7,DIEITTNGEEDAKRVTKELQKRNLEYHIEVHGNQWVIKVR [I16T],1.25
8,DIEITTNGEEDAKRVGKELQKRNLEYHIEVHGNQWVIKVR [I16G],0.895
9,RIEITTNGEEDAKRVIKELQKRNLEYHIEVHGNQWVIKVR [D1R],2.24
10,GIEITTNGEEDAKRVIKELQKRNLEYHIEVHGNQWVIKVR [D1G],2.43
11,QIEITTNGEEDAKRVIKELQKRNLEYHIEVHGNQWVIKVR [D1Q],2.36
12,VIEITTNGEEDAKRVIKELQKRNLEYHIEVHGNQWVIKVR [D1V],2.77
13,PIEITTNGEEDAKRVIKELQKRNLEYHIEVHGNQWVIKVR [D1P],2.29
14,DIEITTNGEEDAKRVIKELQKRNLYYHIEVHGNQWVIKVR [E25Y],2.43
15,DIEITTNGEEDAKRVIKELQKRNLMYHIEVHGNQWVIKVR [E25M],2.52
16,DIEITTNGEEDAKRVIKELQKRNLQYHIEVHGNQWVIKVR [E25Q],2.6
17,DIEITTNGEEDAKRVIKELQKRNLWYHIEVHGNQWVIKVR [E25W],2.52
18,DIEITTNGEEDAKRVIKELQKRNLDYHIEVHGNQWVIKVR [E25D],2.31
19,DIEITTNGEEDAKRVIKELQKRNLEYHIEVHHNQWVIKVR [G32H],1.39
20,DIEITTNGEEDAKRVIKELQKYNLEYHIEVHGNQWVIKVR [R22Y],2.62
21,DIEITTNGEEDAKRVIKELQKINLEYHIEVHGNQWVIKVR [R22I],1.54
22,DIEITTNGEEDAKRVIKELQKANLEYHIEVHGNQWVIKVR [R22A],2.25
23,DIEITTNGEEDAKRVIKELQKTNLEYHIEVHGNQWVIKVR [R22T],1.51
24,DIEHTTNGEEDAKRVIKELQKRNLEYHIEVHGNQWVIKVR [I4H],0.697
25,DIEMTTNGEEDAKRVIKELQKRNLEYHIEVHGNQWVIKVR [I4M],1.23
